B1: N-K4-M2GlyR (peptide)
peptide: KKKKPARVGLGITTVLTMTTQSSGSRA
notes: Synthetic peptide; tested for association with itself in solution by BS3 cross-linking and SDS-PAGE; also called NK4ALB
B2: C-K4-M2GlyR (peptide)
peptide: PARVGLGITTVLTMTTQSSGSRAKKKK
notes: Synthetic peptide; tested for association with itself in solution by BS3 cross-linking and SDS-PAGE; also called CK4ALB
B3: NK4A'Wa' (peptide)
peptide: KKKKAARVGLGITTVWVTTIGLGVRAA
notes: Synthetic peptide; tested for association with itself in solution by BS3 cross-linking and SDS-PAGE

Target: the molecule itself
Experiment: BS3 chemical cross-linking in solution, SDS-PAGE, silver stain; association of the peptide with itself
Method: In order to visualize the oligomeric state of the peptide in solution a chemical cross-linking protocol was developed. Calculated amounts of each peptide were weighted out and dissolved in 1 mL of distilled water to make 1 mM stock solutions. A 100 mM stock solution of the chemical crosslinking reagent Bis[Sulfosuccinimidyl]suberate, BS³, (Pierce Chemical Co., Rockford, Ill.) was prepared in dimethyl sulfoxide (DMSO). In typical reactions, 5-30 μL of 1.0 mM stock solution of peptide are added to 64-94 μL of 10 mM HEPES buffer, pH 8.1 to give a range of concentrations starting at 50 μM rising up to 300 μM. Sample were allowed to sit at room temperature for 15 minutes. 1-6 μL of 100 mM BS³ was then added to the previously prepared peptide such that the crosslinking reagent was present in 20-fold excess. The final volume for each reaction was 100 μL. After reacting for 30 minutes, the reaction was stopped with the addition of 10 μL 1.0 N HCl. Each sample was then vacuum dried. Later dry samples were re-dissolved in 60 μL of distilled water along with 60 μL of a 2×-tricine SDS sample buffer (Novex, San Diego). All samples were then boiled at 100° C. for 5 minutes. 5 μL aliquots of each SDS boiled sample was then loaded into separate lanes of pre-cast, 1.0 mm, 10 well, 10-20% tricine gels (Novex, San Diego). Pre-made Novex tricine-SDS buffer was used in the electrophoresis. The reference well contained 1 μL of MultiMark® multi-colored molecular weight standard (Novex, San Diego). The electrophoresis was carried out at a constant 110 Volts for 90 minutes. The gel was then fixed in 40% methanol in water and the cross-linked peptides visualized using silver staining (SilverXpress® silver staining kit, Invitrogen, Carlsbad, Calif.).
B1: binds. B2: binds. B3: no binding.

Source: US20070298494A1 (KANSAS STATE UNIVERSITY RESEARCH FOUNDATION, published 2007)
